These results are taken from the Immune Epitope Database (IEDB).

In one assay the target is HLA-A*11:01. Briefly: IEDB peptide-MHC binding, purified MHC/direct/fluorescence; filed as Kd, often an IC50 or EC50 that approximates it; ≥ and ≤ were set here for values at or beyond the usual limits of such assays.
The target of assay [1] is HLA-A*31:01. Briefly: IEDB peptide-MHC binding, purified MHC/competitive/fluorescence; filed as Kd, often an IC50 or EC50 that approximates it; ≥ and ≤ were set here for values at or beyond the usual limits of such assays.
In assay [2] the target is HLA-B*57:01. Briefly: IEDB peptide-MHC binding, purified MHC/competitive/radioactivity; filed as Kd, often an IC50 or EC50 that approximates it; ≥ and ≤ were set here for values at or beyond the usual limits of such assays.
Another assay addresses HLA-A*29:02. Briefly: IEDB peptide-MHC binding, purified MHC/competitive/fluorescence; filed as Kd, often an IC50 or EC50 that approximates it; ≥ and ≤ were set here for values at or beyond the usual limits of such assays.
Assay [3] concerns the target HLA-B*18:01. Briefly: IEDB peptide-MHC binding, purified MHC/direct/fluorescence; filed as Kd, often an IC50 or EC50 that approximates it; ≥ and ≤ were set here for values at or beyond the usual limits of such assays.
A further assay addresses HLA-B*40:01. Described as above.
Another assay deals with HLA-B*44:02. Described as above.
The target in assay [4] is HLA-A*03:01. Described as above.
The next assay deals with HLA-A*02:01. The assay is described as above.
Another assay deals with HLA-A*02:11. Described as above.
The target of the next assay is HLA-A*02:12. The assay is described as above.
A further assay deals with HLA-A*02:19. The description is as above.
The target of assay [5] is HLA-A*69:01. The description is as above.
The target in another assay is HLA-B*27:05. Described as above.
For another assay, the target named is HLA-B*48:01. The assay is described as above. The following applies: source organism: West Nile virus.
Assay [6] addresses HLA-A*01:01. Described as above.
The target in a further assay is HLA-B*07:02. The description is as above.
Another assay concerns the target HLA-B*15:01. The assay is described as above.
The target in a further assay is HLA-B*46:01. Described as above. The following applies: source organism: West Nile virus.
The target in assay [7] is HLA-B*57:01. The description is as above. The following applies: source organism: West Nile virus.
The next assay deals with HLA-B*58:01. Described as above.
The target in assay [8] is HLA-A*03:01. Kind of assay: IEDB peptide-MHC binding, purified MHC/competitive/fluorescence; filed as Kd, often an IC50 or EC50 that approximates it; ≥ and ≤ were set here for values at or beyond the usual limits of such assays.
Assay [9] addresses HLA-A*01:01. The assay is described as above. To be noted: source organism: Xenopus laevis.
The target of a further assay is HLA-A*68:02. Briefly: IEDB peptide-MHC binding, purified MHC/direct/fluorescence; filed as Kd, often an IC50 or EC50 that approximates it; ≥ and ≤ were set here for values at or beyond the usual limits of such assays. The following applies: source organism: Orthohantavirus tulaense.
Assay [10] concerns the target HLA-A*26:01. Kind of assay: IEDB peptide-MHC binding, purified MHC/competitive/fluorescence; filed as Kd, often an IC50 or EC50 that approximates it; ≥ and ≤ were set here for values at or beyond the usual limits of such assays. The following applies: source organism: Orthohantavirus tulaense.
Assay [11] addresses HLA-A*69:01. The description is as above. To be noted: source organism: Orthohantavirus tulaense.
The target of assay [12] is HLA-B*18:01. The description is as above. The following applies: source organism: Orthohantavirus tulaense.
For a further assay, the target named is HLA-B*27:03. The assay is described as above. The following applies: source organism: Orthohantavirus tulaense.
The next assay concerns the target HLA-B*51:01. The assay is described as above. The following applies: source organism: Orthohantavirus tulaense.
In assay [13] the target is HLA-B*57:01. The description is as above. The following applies: source organism: Orthohantavirus tulaense.
For a further assay, the target named is HLA-A*02:03. Briefly: IEDB peptide-MHC binding, purified MHC/direct/fluorescence; filed as Kd, often an IC50 or EC50 that approximates it; ≥ and ≤ were set here for values at or beyond the usual limits of such assays. The following applies: source organism: Mycobacterium tuberculosis F11.
In another assay the target is HLA-A*24:03. The assay is described as above. To be noted: source organism: Campylobacter jejuni.
Assay [14] addresses HLA-A*26:01. The description is as above. The following applies: source organism: Campylobacter jejuni.
The target of assay [15] is HLA-A*31:01. The description is as above. To be noted: source organism: Campylobacter jejuni.
The target in another assay is HLA-B*08:01. Described as above. To be noted: source organism: Campylobacter jejuni.
The next assay deals with HLA-A*02:17. Briefly: IEDB peptide-MHC binding, purified MHC/competitive/radioactivity; filed as Kd, often an IC50 or EC50 that approximates it; ≥ and ≤ were set here for values at or beyond the usual limits of such assays. The following applies: source organism: Dengue virus 1 Singapore/S275/1990.
[16] abbreviates: source organism: Orthohantavirus hantanense.
The mark [17] stands for this setting: source organism: Influenza A virus (A/swine/Bakum/5/95(H1N1)).
Where [18] appears, read: source organism: Influenza A virus (A/quail/Hong Kong/FY298/00(H9N2)).
Setting [19] is: source organism: Hantaanvirus CGRn93P8.
[20] abbreviates: source organism: West Nile virus.
[21] abbreviates: source organism: Bacillus anthracis str. A0488.
Where [22] appears, read: source organism: Escherichia coli O157:H7.
Where [23] appears, read: source organism: Escherichia coli.
Setting [24] is: source organism: Campylobacter jejuni.
The mark [25] stands for this setting: source organism: Dengue virus 2 Thailand/16681/84.
The mark [26] stands for this setting: source organism: Influenza A virus.

What is called Kd is the equilibrium constant for the complex coming apart. Consider RVDGLELKK, for which the Kd with HLA-A*11:01 (source organism: Yellow fever virus 17D) was 18.8 nM; with HLA-A*31:01 [1] (source organism: Yellow fever virus), no less than 20000 nM.
As for STSLLFLNDM, in the assay with HLA-B*57:01 [2] (source organism: Dengue virus 4 Philippines/H241/1956), the Kd is 86.4 nM.
Turning to KTTLSLDYAW, in the assay with HLA-B*57:01 [2] (source organism: Dengue virus 1 Brazil/97-11/1997), the Kd came to 0.847 nM.
In the case of VGGDIRTLY, in the assay with HLA-A*29:02 (source organism: Coxiella burnetii RSA 331), the Kd was 68.6 nM.
IEADIEHFL: the Kd with HLA-B*18:01 [3] (setting [16]) came out at 58.8 nM; in the assay with HLA-B*40:01 (setting [16]), 1.2 nM; in the assay with HLA-B*44:02 (setting [16]), 7670 nM.
As to GINDRNFWR, the Kd is 4140 nM with HLA-A*03:01 [4] (setting [17]), 148 nM with HLA-A*11:01 (setting [17]) and 3.17 nM with HLA-A*31:01 [1] (source organism: Influenza A virus (A/swine/Italy/1509-6/97(H1N1))).
Consider NTMTKDAER, for which the values for the Kd in the assay with HLA-A*03:01 [4] (setting [18]), in the assay with HLA-A*11:01 (setting [18]) and in the assay with HLA-A*31:01 [1] (source organism: Influenza A virus (A/Fort Monmouth/1/1947-mouse adapted(H1N1))) were no less than 20000 nM, no less than 20000 nM and 108 nM, respectively.
In the assay with HLA-A*29:02 (source organism: Encephalitozoon cuniculi GB-M1), IVNMGNPDY registered a Kd of 54.4 nM.
As for QMISPVMSV, the Kd in the assay with HLA-A*02:01 (setting [16]) was no more than 1 nM; in the assay with HLA-A*02:11 (setting [19]), no more than 1 nM; with HLA-A*02:12 (setting [19]), 3 nM; with HLA-A*02:19 (setting [19]), 7 nM; with HLA-A*69:01 [5] (setting [16]), 1.2 nM.
For KRVQEVKGY, the Kd in the assay with HLA-B*27:05 (setting [20]) was 782 nM; with HLA-B*48:01 it was no less than 20000 nM.
In the case of FTRYRKEAI, the Kd in the assay with HLA-A*01:01 [6] (setting [20]), with HLA-A*02:01 (setting [20]), in the assay with HLA-A*03:01 [4] (setting [20]), with HLA-A*11:01 (setting [20]), with HLA-B*07:02 (setting [20]) and with HLA-B*15:01 (setting [20]) was no less than 20000 nM each time. Besides, the Kd with HLA-B*18:01 [3] (setting [20]), with HLA-B*27:05 (setting [20]), with HLA-B*44:02 (setting [20]), in the assay with HLA-B*46:01, with HLA-B*48:01 and with HLA-B*57:01 [7] was no less than 20000 nM throughout. In addition, in the assay with HLA-B*58:01 (setting [20]), the Kd is no less than 20000 nM.
With KLSSMAAER, the Kd with HLA-A*03:01 [8] (setting [21]) stood at 88 nM; in the assay with HLA-A*31:01 [1] (setting [21]), 16 nM.
With GSASPTPPY, the values for the Kd with HLA-A*01:01 [9] and with HLA-A*29:02 (source organism: Xenopus laevis) were 42.7 nM and 3.7 nM, respectively.
On to FMFNELLAL, for which the Kd with HLA-A*02:01 (source organism: Orthohantavirus puumalaense) is 0.2 nM; with HLA-A*03:01 [4] (source organism: Orthohantavirus tulaense), no less than 20000 nM; in the assay with HLA-A*68:02 it was no less than 20000 nM; with HLA-A*26:01 [10] it was no less than 20000 nM; with HLA-A*69:01 [11], no less than 20000 nM; with HLA-B*18:01 [12], no less than 20000 nM. Further, the Kd with HLA-B*27:03, with HLA-B*51:01 and in the assay with HLA-B*57:01 [13] was no less than 20000 nM throughout.
For MLRLWWIPY, the values for the Kd in the assay with HLA-A*03:01 [4] (setting [22]), in the assay with HLA-A*11:01 (setting [22]) and with HLA-A*31:01 [1] (source organism: Escherichia coli HS) were 10100 nM, no less than 20000 nM and no less than 20000 nM, respectively.
Consider SSSMRKTDW, for which the Kd in the assay with HLA-B*57:01 [2] (source organism: Dengue virus 3 Martinique/1243/1999) is 416 nM.
With FLFGDDDAL, the Kd amounted to 2 nM with HLA-A*02:03, 3 nM with HLA-A*02:11 (source organism: Mycobacterium tuberculosis F11) and 2110 nM with HLA-A*69:01 [5] (source organism: Mycobacterium tuberculosis).
For GIWHGPYWH, the Kd with HLA-A*29:02 (source organism: Clostridium botulinum E3 str. Alaska E43) came out at 231 nM.
With ALRGVAVGR, the Kd with HLA-A*03:01 [8] (setting [23]) worked out at 9.7 nM; with HLA-A*31:01 [1] (setting [23]), 3.8 nM.
In the case of VFKVKLHEI, the Kd with HLA-A*01:01 [6] (setting [24]) is no less than 20000 nM; in the assay with HLA-A*02:01 (setting [24]), 18500 nM; with HLA-A*03:01 [4] (setting [24]), no less than 20000 nM; with HLA-A*11:01 (setting [24]), no less than 20000 nM; in the assay with HLA-A*24:03 it was 92.3 nM; in the assay with HLA-A*26:01 [14], no less than 20000 nM. The Kd with HLA-A*31:01 [15] is no less than 20000 nM; with HLA-A*69:01 [5] (setting [24]), no less than 20000 nM; in the assay with HLA-B*07:02 (setting [24]), no less than 20000 nM; in the assay with HLA-B*08:01, 391 nM; with HLA-B*15:01 (setting [24]), no less than 20000 nM; with HLA-B*27:05 (setting [24]) it was no less than 20000 nM. Further, the Kd with HLA-B*40:01 (setting [24]), with HLA-B*44:02 (setting [24]) and with HLA-B*58:01 (setting [24]) was no less than 20000 nM throughout.
Consider KMDIGVPLL, for which the Kd in the assay with HLA-A*02:11 (setting [25]) was no more than 1 nM; with HLA-A*02:12 (setting [25]), 4 nM; with HLA-A*02:19 (setting [25]), 16 nM; with HLA-A*69:01 [5] (source organism: Dengue virus 1 Singapore/S275/1990) it was no less than 20000 nM; with HLA-A*02:17, 1250 nM.
As to LIAPRGYFK, the values for the Kd with HLA-A*03:01 [8] (setting [26]) and in the assay with HLA-A*31:01 [1] (setting [26]) were 10.7 nM and 33.9 nM, respectively.
